# From article PMC9000915
# Molecular target: gp41 subunit of ADA.CM.v4 Env on hVLPs (CTD truncated, stop codon at 756) (HIV-1 (subtype B isolate ADA))
# Test: cryo-EM structure; cryo-ET with sub-tomogram averaging of Env on purified, AT-2-treated ADA.CM.v4 hVLPs; C3 map 9.13 Å, C1 map 10.67 Å; PDB 6ULC fitted as rigid body
substance,measurement,value
"gp41 subunit of ADA.CM.v4 Env on hVLPs (CTD truncated, stop codon at 756) (natural protein)",stoichiometry N,3
